Positions count from the first letter of the chain named. Where two headings read alike, the source gives them in different places.
Tests used:
[1] = target: T1, purified human CD45 ectodomain (human CD45RABC antigen) (human, UniProt P08575 26-577); test: BLI (Octet Red96), IgG on anti-human Fc sensor, 50 nM CD45 ectodomain, 1:1 fit
T1 construct: also called hCD45
T1 sequence: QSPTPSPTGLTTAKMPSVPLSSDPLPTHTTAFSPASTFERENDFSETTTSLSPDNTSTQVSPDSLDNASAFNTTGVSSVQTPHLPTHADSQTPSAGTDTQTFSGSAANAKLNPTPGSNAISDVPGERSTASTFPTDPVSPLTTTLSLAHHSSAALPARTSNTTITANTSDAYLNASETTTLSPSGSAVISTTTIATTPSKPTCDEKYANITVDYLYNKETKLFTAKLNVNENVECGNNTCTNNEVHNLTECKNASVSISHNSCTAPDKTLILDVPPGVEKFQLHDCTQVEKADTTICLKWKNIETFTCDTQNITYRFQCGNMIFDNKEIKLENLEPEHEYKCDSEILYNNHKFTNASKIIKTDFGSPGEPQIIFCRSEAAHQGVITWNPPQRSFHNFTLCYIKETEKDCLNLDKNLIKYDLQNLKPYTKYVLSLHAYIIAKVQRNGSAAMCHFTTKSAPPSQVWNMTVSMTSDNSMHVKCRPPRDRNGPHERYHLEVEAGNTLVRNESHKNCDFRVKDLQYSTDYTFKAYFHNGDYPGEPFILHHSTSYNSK

[2] = target: T2, cynomolgus CD45 on live cells (primary cynomolgus PBMCs) (cynomolgus monkey); test: flow cytometry on cynomolgus PBMCs, overnight 37 C, AF488 anti-human IgG
T2 construct: Endogenous CD45 on PBMCs; also called cyno CD45; Cyno PBMC
T2 chain: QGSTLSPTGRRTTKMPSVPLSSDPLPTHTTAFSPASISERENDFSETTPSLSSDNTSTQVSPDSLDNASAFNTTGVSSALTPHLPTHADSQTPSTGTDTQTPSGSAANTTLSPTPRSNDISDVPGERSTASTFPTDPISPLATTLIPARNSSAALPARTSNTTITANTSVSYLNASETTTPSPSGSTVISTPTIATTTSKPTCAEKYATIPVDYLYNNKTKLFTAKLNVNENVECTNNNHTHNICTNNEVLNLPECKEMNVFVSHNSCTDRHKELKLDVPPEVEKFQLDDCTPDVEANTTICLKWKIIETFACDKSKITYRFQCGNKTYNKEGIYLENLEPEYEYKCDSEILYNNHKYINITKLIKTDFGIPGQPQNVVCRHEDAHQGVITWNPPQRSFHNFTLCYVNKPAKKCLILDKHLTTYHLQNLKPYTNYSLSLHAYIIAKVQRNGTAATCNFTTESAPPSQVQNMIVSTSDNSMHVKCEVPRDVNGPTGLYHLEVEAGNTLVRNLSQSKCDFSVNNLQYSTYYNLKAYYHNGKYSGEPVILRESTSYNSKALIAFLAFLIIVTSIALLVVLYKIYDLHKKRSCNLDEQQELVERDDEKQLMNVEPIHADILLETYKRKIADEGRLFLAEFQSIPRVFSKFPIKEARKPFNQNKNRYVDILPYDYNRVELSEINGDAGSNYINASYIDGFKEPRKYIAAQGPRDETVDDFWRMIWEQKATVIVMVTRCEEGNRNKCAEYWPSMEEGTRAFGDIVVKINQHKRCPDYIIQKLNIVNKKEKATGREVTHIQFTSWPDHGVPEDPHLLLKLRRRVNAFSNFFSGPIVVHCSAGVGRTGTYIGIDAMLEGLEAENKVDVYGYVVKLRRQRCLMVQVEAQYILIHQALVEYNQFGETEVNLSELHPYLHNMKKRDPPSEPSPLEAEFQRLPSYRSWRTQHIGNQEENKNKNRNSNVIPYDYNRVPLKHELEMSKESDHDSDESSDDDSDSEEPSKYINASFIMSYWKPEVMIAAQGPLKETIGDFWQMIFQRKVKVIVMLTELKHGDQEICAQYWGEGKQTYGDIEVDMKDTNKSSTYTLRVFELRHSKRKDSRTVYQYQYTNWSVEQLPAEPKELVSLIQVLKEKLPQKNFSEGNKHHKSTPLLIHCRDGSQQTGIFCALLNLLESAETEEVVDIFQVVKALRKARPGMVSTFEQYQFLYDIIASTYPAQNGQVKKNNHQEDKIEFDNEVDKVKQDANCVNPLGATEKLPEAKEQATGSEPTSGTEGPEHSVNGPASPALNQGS

[3] = target: T1, purified human CD45 ectodomain (human …); test: BLI (Octet Red96), antibody on anti-human Fc sensor, 100 nM human CD45 ectodomain, 1:1 fit
[4] = target: T3, human CD45 on live cells (REH-1 cells, primary human PBMCs) (human, UniProt P08575 26-1306); test: flow cytometry on human PBMCs, overnight 37 C, AF488 anti-human IgG
T3 construct: Endogenous CD45
T3 sequence: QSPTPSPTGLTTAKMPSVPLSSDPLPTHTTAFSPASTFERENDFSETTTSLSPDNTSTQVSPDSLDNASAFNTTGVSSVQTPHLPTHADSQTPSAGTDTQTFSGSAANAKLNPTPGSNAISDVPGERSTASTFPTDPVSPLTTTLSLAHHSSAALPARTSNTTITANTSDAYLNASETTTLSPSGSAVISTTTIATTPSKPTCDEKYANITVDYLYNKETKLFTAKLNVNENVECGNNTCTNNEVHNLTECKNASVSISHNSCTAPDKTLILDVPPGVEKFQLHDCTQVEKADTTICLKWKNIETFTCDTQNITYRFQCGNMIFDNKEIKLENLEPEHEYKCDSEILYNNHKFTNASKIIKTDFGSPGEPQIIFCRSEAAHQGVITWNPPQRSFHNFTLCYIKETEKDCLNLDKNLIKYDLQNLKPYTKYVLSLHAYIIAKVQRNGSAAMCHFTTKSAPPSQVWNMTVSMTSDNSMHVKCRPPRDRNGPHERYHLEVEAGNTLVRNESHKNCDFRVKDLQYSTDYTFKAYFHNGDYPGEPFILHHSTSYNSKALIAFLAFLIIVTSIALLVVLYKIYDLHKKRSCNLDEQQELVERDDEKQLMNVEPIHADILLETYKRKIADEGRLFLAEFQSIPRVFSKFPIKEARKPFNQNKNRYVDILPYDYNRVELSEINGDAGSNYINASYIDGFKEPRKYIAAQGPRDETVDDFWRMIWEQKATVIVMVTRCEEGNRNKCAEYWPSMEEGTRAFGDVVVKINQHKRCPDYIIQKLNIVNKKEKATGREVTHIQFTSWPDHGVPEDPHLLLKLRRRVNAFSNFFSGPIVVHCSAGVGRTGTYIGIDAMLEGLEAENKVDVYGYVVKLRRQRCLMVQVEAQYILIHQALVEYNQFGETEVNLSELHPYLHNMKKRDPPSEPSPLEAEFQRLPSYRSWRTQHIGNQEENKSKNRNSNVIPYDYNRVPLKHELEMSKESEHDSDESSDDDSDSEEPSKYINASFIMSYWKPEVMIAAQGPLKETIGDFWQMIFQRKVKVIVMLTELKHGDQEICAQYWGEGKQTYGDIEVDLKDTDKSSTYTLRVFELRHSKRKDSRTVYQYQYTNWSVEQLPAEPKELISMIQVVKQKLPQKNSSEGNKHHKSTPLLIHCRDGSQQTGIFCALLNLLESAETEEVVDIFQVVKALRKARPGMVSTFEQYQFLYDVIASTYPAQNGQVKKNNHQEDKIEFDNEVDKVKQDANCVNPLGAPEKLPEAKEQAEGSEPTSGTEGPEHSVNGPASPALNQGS

[5] = target: T2, cynomolgus CD45 on live cells (primary …); test: flow cytometry on cynomolgus PBMCs, overnight 37 C, AF488 anti-human IgG
[6] = target: T2, cynomolgus CD45 on live cells (primary …); test: flow cytometry on PBMCs; cyno EC50 against human EC50
[7] = target: T2, cynomolgus CD45 on live cells (primary …); test: as above
[8] = target: T3, human CD45 on live cells (REH-1 cells, …); test: flow cytometry on human PBMCs, overnight 37 C, AF488 anti-human IgG; remark: listed apart in the source
[9] = target: T2, cynomolgus CD45 on live cells (primary …); test: flow cytometry on PBMCs; cyno EC50 against human EC50
[10] = target: T2, cynomolgus CD45 on live cells (primary …); test: flow cytometry on cynomolgus PBMCs, overnight 37 C, AF488 anti-human IgG
[11] = target: T3, human CD45 on live cells (REH-1 cells, …); test: flow cytometry on human PBMCs, overnight 37 C, AF488 anti-human IgG; remark: listed apart in the source

B1: Antibody 4 (Ab4) (antibody, V domains shown)
VH: EVQLVESGGGLVQPGGSLRLSCAASGFTFEAYSMNWVRQAPGKGLEWVSYISLSGATIHYADSVKGRFTISRDNAKNSLYLQMNSLRAEDTAVYYCARGGQYYYTSSDYGEVAFDIWGQGTMVTVSS
VL: DIVMTQSPLSLPVTPGEPASISCRSSQSLVSNGYNYLDWYLQKPGQSPQLLIYFGSSRASGVPDRFSGSGSGTDFTLKISRVEAEDVGVYYCMQRRRTPWSFGGGTKVEIK
- Kd [1]: 0.0139 nM
- koff [1]: 3.28e-06 s⁻¹
- kon [1]: 236000 M⁻¹ s⁻¹

B2: Antibody 3 (Ab3) (antibody, V domains shown)
VH: B1 VH with E1Q, Q13K, E30G, A31G, L53I, H59T, T105D
VL: DIVMTQSPLSLPVTPGEPASISCRSSQSLVSNGYNYLDWYLQKPGQSPQLLIYFGSSRASGVPDRFSGSGSGTDFTLKISRVEAEDVGVYYCMQRRRTPPFTFGGGTKVEIK
- Kd [1]: 0.866 nM
- koff [1]: 0.000225 s⁻¹
- kon [1]: 260000 M⁻¹ s⁻¹

B3: Antibody 7 (Ab7) (antibody, V domains shown)
VH: B1 VH with E1Q, Q13K, E30G, A31G, L53I, H59T, T105D
VL: B2 VL with N32S
notes: Human IgG: Ab3 with the Asn to Ser substitution in CDR-L1
- Kd [1]: 2.33 nM
- koff [1]: 0.000615 s⁻¹
- kon [1]: 264000 M⁻¹ s⁻¹

B4: Antibody 5 (Ab5) (antibody, V domains shown)
VH: B1 VH
VL: B1 VL with N32S
notes: Human IgG: Ab4 with the Asn to Ser substitution in CDR-L1
- Kd [1]: 0.144 nM
- koff [1]: 3.36e-05 s⁻¹
- kon [1]: 233000 M⁻¹ s⁻¹

B5: Antibody 6 (Ab6) (antibody, V domains shown)
VH: B1 VH with M122L
VL: B1 VL with M4L, N32S
- Kd [1]: 0.0716 nM
- koff [1]: 1.73e-05 s⁻¹
- kon [1]: 242000 M⁻¹ s⁻¹

B6: Antibody 2 (Ab2) (antibody, V domains shown)
VH: B1 VH with T105D
VL: B1 VL
- Kd [1]: 0.115 nM
- koff [1]: 2.8e-05 s⁻¹
- kon [1]: 245000 M⁻¹ s⁻¹

B7: Antibody A (AbA) (antibody, V domains shown)
VH: EVQLLESGGGLVQPGGSLRLSCAASGFTFNNYWMTWVRQAPGKGLEWVSSISSSGGSIYYPDRVKGRFTISRDNSKNTLYLQMNSLRAEDTAVYYCARDERWAGAMDAWGQGTTVTVSS
VL: DIQMTQSPSSLSASVGDRVTITCKASQNINKNLDWYQQKPGKAPKLLIYETNNLQTGVPSRFSGSGSGTDFTLTISSLQPEDFATYYCYQHNSRFTFGQGTKLEIK
notes: also called humanized clone AbA
- EC50 [2]: 1.37 nM
- Kd [3]: 3.6 nM
- koff [3]: 0.000181 s⁻¹
- kon [3]: 50300 M⁻¹ s⁻¹
- EC50 [4]: 0.78 nM
- EC50 [5]: 1.25 nM
- Fold Cyno v/s Human (EC50) [6]: 1.8 fold
- Fold Cyno vs Human (EC50) [7]: 2.2 fold
- EC50 [8]: 0.58 nM

B8: AbA_D265C_LALA_H435A (antibody, human IgG1, kappa, L234A L235A, V domains shown)
VH: B7 VH
VL: DIQMTQSPSSLSASVGDRVTITCKASQNINKNLDWYQQKPGKAPKLLIYETNNLQTGVPSRFSGSGSGTDFTLTISSLQPEDFATYYCYQHNSRFTFGQGTKLEIKR
notes: also called Fc variant of AbA
- Cyno/Human Ratio (EC50) [9]: 1.49 ratio
- EC50 [10]: 3.4 nM
- EC50 [11]: 2.3 nM

B9: Antibody B (AbB) (antibody, IgG1, V domains shown)
VH: EVQLVESGGGLVQPGGSLRLSCAASGFTFTNFWMAWIRQAPGKGLEWVASISSSGGSIYYPDSVKDRFTISRDNSKNTLYLQMNSLRAEDTAVYYCVKFHHYSGGGDAWGQGTLVTVSS
VL: DIQMTQSPSSLSASVGDRVTITCKASQNINKYLDWYQQKPGKAPKLLIHYTNNLHTGIPSRFSGSGSGTDYTLTISSLQPEDFATYYCLQHSSRWTFGGGTKVEIK
notes: also called humanized clone AbB
- EC50 [2]: 1.42 nM
- Kd [3]: 5.46 nM
- koff [3]: 0.000239 s⁻¹
- kon [3]: 43800 M⁻¹ s⁻¹
- EC50 [4]: 0.76 nM
- EC50 [5]: 1.12 nM
- Fold Cyno v/s Human (EC50) [6]: 1.9 fold
- Fold Cyno vs Human (EC50) [7]: 1.7 fold
- EC50 [8]: 0.67 nM

From patent US20220267441A1 (VOR BIOPHARMA, published 2022)
